Results on five molecules are retold here after PMC4739766 (eLife, 2015).

The target of assay [1] is human p75^NTR death domain (330–427) (human) (UniProt P08138). Put plainly: SPR; p75NTR DD-His captured on NTA sensor chip via Ni2+; BIAcore T200, 22°C; 10 mM HEPES, 50 mM NaCl, 0.005% Surfactant P20, 0.02% BSA, pH 7.0; kinetic analysis, one binding site model.
The target of the next assay is RhoA (Homo sapiens) (UniProt P61586). The following applies: cited from earlier work.
The target in assay [2] is T1, human p75^NTR death domain (330–427) (human), P08138.
T1 chain: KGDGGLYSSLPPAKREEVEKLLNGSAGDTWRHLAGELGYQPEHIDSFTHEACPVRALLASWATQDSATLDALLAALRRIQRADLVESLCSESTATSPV
Kind of assay: dynamic light scattering; p75NTR DD ~0.2 mM in phosphate buffer, pH 7.0, 22°C; apparent hydrodynamic radius. The following applies: remark: other sources report otherwise.

Assay [3] concerns the target T2, p75^NTR DD tagged with EGFP(A206K) in its C-terminus (human).
T2 chain: T1 chain
Put plainly: FRET or BRET; homo-FRET fluorescence anisotropy of p75NTR DD-EGFP diluted serially in 50 mM phosphate buffer pH 7.0, room temperature; fit to a monomer-dimer equilibrium; apparent; dimer to monomers. Particulars: remark: other sources report otherwise. (BRET reads energy transfer from a luciferase to a nearby fluorophore.)

Another assay has as its target T3, human RhoGDI (2–204) (human, UniProt P52565 2-204).
T3 construct: 15N- or 13C,15N-labelled in some NMR samples; source: E. coli SoluBL21 (DE3), purified (Ni-NTA, gel filtration Superdex 75 and/or ion exchange)
T3 sequence (looked up): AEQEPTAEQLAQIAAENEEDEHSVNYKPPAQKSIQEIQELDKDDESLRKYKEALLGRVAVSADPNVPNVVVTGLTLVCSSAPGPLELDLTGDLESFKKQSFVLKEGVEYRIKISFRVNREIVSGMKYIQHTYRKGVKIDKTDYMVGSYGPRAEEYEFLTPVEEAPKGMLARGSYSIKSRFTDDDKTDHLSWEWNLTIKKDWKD
Kind of assay: SPR; p75NTR DD-His captured on NTA sensor chip via Ni2+; BIAcore T200, 22°C; 10 mM HEPES, 50 mM NaCl, 0.005% Surfactant P20, 0.02% BSA, pH 7.0; kinetic analysis, one binding site model. The following applies: both partners purified. A general note: Surface plasmon resonance follows binding to a sensor surface in real time, without labels.

Assay [4] addresses T4, human RIP2 CARD (434–539) (human, UniProt O43353 434-539).
T4 construct: RIP2 kinase, human, caspase recruitment domain with C-terminal tail, residues 434-539; The results speak of a C-terminal tail Leu524-Met540 and of 107 amino acids, the methods of residues 434-539; also called RIP2 CARD (including C-terminal tail); source: E. coli SoluBL21 (DE3), purified (Ni-NTA, gel filtration Superdex 75 and/or ion exchange)
The description is as above. The following applies: both partners purified.

T4 sequence (O43353 434-539): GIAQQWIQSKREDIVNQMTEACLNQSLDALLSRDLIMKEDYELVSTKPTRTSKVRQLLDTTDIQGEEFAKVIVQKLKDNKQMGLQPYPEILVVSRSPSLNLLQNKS
Chain of RhoA (Homo sapiens) (P61586 1-190): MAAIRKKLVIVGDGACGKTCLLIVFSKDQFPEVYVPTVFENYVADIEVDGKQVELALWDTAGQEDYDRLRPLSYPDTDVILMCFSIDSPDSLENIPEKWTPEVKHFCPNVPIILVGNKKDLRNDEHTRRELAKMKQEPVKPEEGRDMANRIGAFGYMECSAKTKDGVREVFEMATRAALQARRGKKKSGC

“RIP2 CARD ΔC mutant lacking the C-terminal tail (domain or fragment)” had a Kd in assay [1] of 58.7 nM.

For the molecule RhoGDI (from UniProt P52565), in the assay with RhoA (Homo sapiens), the Kd was 170 nM.

B1: human p75^NTR death domain (330–427), P08138 330-427 (domain or fragment)
chain: T1 chain
By stoichiometry N is commonly meant a count of units in the complex or per binding partner. For B1, the stoichiometry N in assay [2] worked out at 2.

B2: p75^NTR DD tagged with EGFP(A206K) in its C-terminus (domain or fragment)
chain: T1 chain
modifications: here or on the partner: C-terminal EGFP(A206K) carrier left out; limits of this fusion are not given, so the paper's own DD construct (330-427) is used / C-terminal EGFP(A206K) carrier left out; limits of this fusion are n
As to B2, in assay [3], the Kd stood at 49000 nM.

B3: human p75^NTR death domain (330–427) (domain or fragment, UniProt P08138 330-427, looked up)
chain: T1 chain
notes: p75 neurotrophin receptor (NGFR, TNFRSF16), human, death domain, residues 330-427; 15N- or 13C,15N-labelled in some NMR samples; Monomer or dimer depending on the buffer; also called p75^NTR DD; DD; source: E. coli SoluBL21 (DE3), purified (Ni-NTA, gel filtration Superdex 75 and/or ion exchange)
As a reminder, the koff is the rate constant with which the complex falls apart. Low readings indicate slow dissociation, high ones fast dissociation. The term kon denotes the rate constant with which the complex forms. A lower kon goes with slower complex formation. In the assay with human RhoGDI (2–204), B3 returned a Kd of 827 ± 338 nM, a koff of 0.05 s⁻¹ and a kon of 60000 ± 10000 M⁻¹ s⁻¹. For the same molecule, in assay [4], the Kd worked out at 4.67 ± 0.7 nM, the koff is 0.00332 s⁻¹ and the kon was 720000 ± 340000 M⁻¹ s⁻¹.
